In US20250382379A1 (VISTERRA, published 2025):

T1: human CD138 (syndecan-1), membrane-bound on CD138+ multiple myeloma cell lines (human, UniProt P18827 23-310)
T1 construct: whole, on cells; also called membrane CD138; cell surface CD138
T1 sequence (looked up): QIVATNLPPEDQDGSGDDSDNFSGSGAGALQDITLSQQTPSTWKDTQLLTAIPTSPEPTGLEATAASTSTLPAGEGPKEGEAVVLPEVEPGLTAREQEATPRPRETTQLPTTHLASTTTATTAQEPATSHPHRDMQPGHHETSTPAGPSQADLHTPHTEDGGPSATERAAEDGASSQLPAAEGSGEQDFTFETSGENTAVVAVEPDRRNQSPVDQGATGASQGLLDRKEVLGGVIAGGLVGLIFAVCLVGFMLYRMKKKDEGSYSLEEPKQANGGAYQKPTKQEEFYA

T2: human CD138 derived peptide 2A (integrin binding domain), biotinylated (human, biotinylated (site not stated))
T2 construct: also called Pep2a
T2 peptide: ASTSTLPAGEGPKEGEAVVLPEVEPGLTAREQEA

T3: human CD138 derived peptide 6A (membrane proximal region), biotinylated (human, biotinylated (site not stated))
T3 construct: also called Pep6a
T3 peptide: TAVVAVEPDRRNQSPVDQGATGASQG

T4: extracellular domain of soluble human CD138 (amino acids 18-251 of SEQ ID NO 1), biotinylated recombinant (human, UniProt P18827 18-251, biotinylated (site not stated))
T4 construct: also called CD138 extracellular domain; soluble extracellular domain of human CD138
T4 sequence: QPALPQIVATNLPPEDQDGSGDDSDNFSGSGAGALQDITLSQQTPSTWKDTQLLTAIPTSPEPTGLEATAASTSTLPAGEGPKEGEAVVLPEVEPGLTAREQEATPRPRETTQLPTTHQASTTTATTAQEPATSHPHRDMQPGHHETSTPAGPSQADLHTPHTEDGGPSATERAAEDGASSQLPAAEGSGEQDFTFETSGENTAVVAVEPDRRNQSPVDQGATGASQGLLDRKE


What was measured:
[1] = molecular target: T1, human CD138 (syndecan-1), …; test: flow cytometry on U266 cells, geometric MFI
[2] = molecular target: T1, human CD138 (syndecan-1), …; test: flow cytometry on U266 cells, maximal MFI, reference BB4
Procedure: The antibodies were then serially diluted three-fold. Antibody binding to membrane CD138 was evaluated using the CD138+ human lymphoblastic myeloma cell line U266 and quantified by flow cytometry. Antibody cell binding was reported as geometric mean fluorescence intensity (MFI). Binding data were plotted using nonlinear regression analysis and a 4-parameter curve fit.
Antibody cell binding was reported as geometric mean fluorescence intensity (MFI). Binding data were plotted using nonlinear regression analysis and a 4-parameter curve fit.

[3] = molecular target: T2, human CD138 derived peptide 2A …; test: antigen capture ELISA, antibody coated, biotinylated peptide titrated from 50 nM
Procedure: (§1) 1 or select human CD138 derived peptides (Table 3) was evaluated by antigen capture ELISA. […] The immobilized monoclonal antibodies were tested for binding to biotinylated recombinant CD138 extracellular domain or peptides 2A, peptide 6A in 5-fold serial antigen dilutions starting at starting at a 50 nM concentration. HRP-conjugated Anti-biotin secondary antibody (1:10000 dilution) was used for detection.

[4] = molecular target: T3, human CD138 derived peptide 6A …; test: as above
Procedure: as §1

[5] = molecular target: T4, extracellular domain of soluble human …; test: antigen capture ELISA, antibody coated, biotinylated CD138 extracellular domain, reference BB4
Procedure: as §1

[6] = molecular target: T1, human CD138 (syndecan-1), …; test: flow cytometry on MM1.S, LP-1 and RPMI 8226 cells

Row | binding result [6] | Binder | further results
1 |  | mouse chimeric anti-CD138 antibody 2810 (antibody, V domains shown, Described as a mouse-human chimeric antibody; also called mAb2810) VH: QVQLHQPGTSLVKPGASVKLSCKASGYSFSSYYMHWVKQRPGQGLEWIGTIHPSDSTTNYNQKFKGKATLTVDKSSRTAYMQLNSLTFEDSAVYYCANFVYWGQGTSVTVSS VL: DIVITQDELSNPVTSGDSVSISCRSSKSLLYKDGKTYLNWFLQRPGQSPQLLIYVVSTRASGVSDRFSGSGSGTDFTLEISRVKAEDVGVYYCQQLVEYPYTFGGGTKLEIK | binding result [1]: binds
2 |  | humanized anti-CD138 antibody mAb 4320 (antibody, human IgG1, kappa, V domains shown, Produced with 2FF in the medium to reduce core fucose of the N297 glycan) VH: QVQLVQSGAEVKKPGASVKVSCKASGYSFSSYYMHWVRQAPGQGLEWMGTIHPSDSTTNYNQKFQGRVTMTVDTSTRTAYMELSSLRSEDTAVYYCANFVYWGQGTTVTVSS VL: DIVMTQTPLSLSVTPGQPASISCKSSKSLLYKDGKTYLNWFLQKPGQSPQLLIYVVSTRASGVPDRFSGSGSGTDFTLKISRVEAEDVGVYYCQQLVEYPYTFGQGTKLEIKR | total cell surface binding (maximal MFI) relative to antibody BB4 [2]: ~25 % greater than BB4; binding result [3]: binds; binding result [4]: binds; fold higher binding affinity in comparison to BB4 [5]: ~6 fold
3 | binds | humanized anti-CD138 antibody variant 3821 (antibody, human IgG1, V domains shown, also called mAb 3821) VH: QVQLVQSGAEVKKPGSSVKVSCKASGYSFSSYYMHWVRQAPGQGLEWMGTIHPSDSTANYNQKFKGRVTITVDKSTSTAYMELSSLRSEDTAVYYCANFVYWGQGTTVTVSS VL: DIVMTQTPLSLSVTPGQPASISCKSSKSLLYKDGKTYLNWFLQKPGQSPQLLIYVVSTRASGVPDRFSGSGSGTDFTLKISRVEAEDVGVYYCQQLVQYPYTFGQGTKLEIK | 
4 | binds | humanized anti-CD138 antibody variant 4326 (antibody, human IgG1, V domains shown, also called mAb 4326) VH: QVQLVQSGAEVKKPGASVKVSCKASGYSFSSYYMHWVRQAPGQGLEWMGTIHPSDSTTNYNQKFQGRVTMTVDTSTRTAYMELSSLRSEDTAVYYCANFVYWGQGTTVTVSS VL: DIVMTQSPDSLAVSLGERATINCKSSQSLLYKDGKTYLNWFQQKPGQPPKLLIYVVSTRASGVPDRFSGSGSGTDFTLTISSLQAEDVAVYYCQQLVEYPYTFGQGTKLEIK | 
5 | binds | humanized anti-CD138 antibody variant 4521 (antibody, human IgG1, V domains shown, also called mAb 4521) VH: QVQLVQSGAEVKKPGASVKVSCKASGYNFASYYMHWVRQAPGQGLEWMGTIHPSDSTTNYNQKFKGRVTMTVDTSTSTAYMELSSLRSEDTAVYYCANFVYWGQGTTVTVSS VL: DIVMTQTPLSLSVTPGQPASISCKSSKSLLYKDGKTYLNWFLQKPGQSPQLLIYVVSTRASGVPDRFSGSGSGTDFTLKISRVEAEDVGVYYCQQLVQYPYTFGQGTKLEIK | 
6 | binds | humanized anti-CD138 antibody variant 3820 (antibody, human IgG1, V domains shown, also called mAb 3820) VH: QVQLVQSGAEVKKPGSSVKVSCKASGYSFSSYYMHWVRQAPGQGLEWMGTIHPSDSTANYNQKFKGRVTITVDKSTSTAYMELSSLRSEDTAVYYCANFVYWGQGTTVTVSS VL: DIVMTQTPLSLSVTPGQPASISCKSSKSLLYKDGKTYLNWFLQKPGQSPQLLIYVVSTRASGVPDRFSGSGSGTDFTLKISRVEAEDVGVYYCQQLVEYPYTFGQGTKLEIK | 
7 | binds | humanized anti-CD138 antibody variant 4321 (antibody, human IgG1, V domains shown, also called mAb 4321) VH: QVQLVQSGAEVKKPGASVKVSCKASGYSFSSYYMHWVRQAPGQGLEWMGTIHPSDSTTNYNQKFQGRVTMTVDTSTRTAYMELSSLRSEDTAVYYCANFVYWGQGTTVTVSS VL: DIVMTQTPLSLSVTPGQPASISCKSSKSLLYKDGKTYLNWFLQKPGQSPQLLIYVVSTRASGVPDRFSGSGSGTDFTLKISRVEAEDVGVYYCQQLVQYPYTFGQGTKLEIK | 
